{
  "source": "patent US20260159601A1",
  "about": "(Hoffmann-La Roche, published 2026)",
  "binders": {"B1": {"name": "RG6035 (bispecific antibody, human IgG1, kappa, L234A L235A)", "light 1": "DIVMTQTPLSLPVTPGEPASISCRSSKSLLHSNGITYLYWYLQKPGQSPQLLIYQMSNLVSGVPDRFSGSGSGTDFTLKISRVEAEDVGVYYCAQNLELPYTFGGGTKVEIKRTVAAPSVFIFPPSDRKLKSGTASVVCLLNNFYPREAKVQWKVDNALQSGNSQESVTEQDSKDSTYSLSSTLTLSKADYEKHKVYACEVTHQGLSSPVTKSFNRGEC", "heavy 1": "VQLVQSGAEVKKPGSSVKVSCKASGYAFSYSWINWVRQAPGQGLEWMGRIFPGDGDTDYNGKFKGRVTITADKSTSTAYMELSSLRSEDTAVYYCARNVFDGYWLVYWGQGTLVTVSSASTKGPSVFPLAPSSKSTSGGTAALGCLVEDYFPEPVTVSWNSGALTSGVHTFPAVLQSSGLYSLSSVVTVPSSSLGTQTYICNVNHKPSNTKVDEKVEPKSCDKTHTCPPCPAPEAAGGPSVFLFPPKPKDTLMISRTPEVTCVVVDVSHEDPEVKFNWYVDGVEVHNAKTKPREEQYNSTYRVVSVLTVLHQDWLNGKEYKCKVSNKALGAPIEKTISKAKGQPREPQVCTLPPSRDELTKNQVSLSCAVKGFYPSDIAVEWESNGQPENNYKTTPPVLDSDGSFFLVSKLTVDKSRWQQGNVFSCSVMHEALHNHYTQKSLSLSPG", "light 2": "AIQLTQSPSSLSASVGDRVTITCRASQSISSYLAWYQQKPGKAPKLLIYRASTLASGVPSRFSGSGSGTDFTLTISSLQPEDFATYYCQQNYASSNVDNTFGGGTKVEIKSSASTKGPSVFPLAPSSKSTSGGTAALGCLVKDYFPEPVTVSWNSGALTSGVHTFPAVLQSSGLYSLSSVVTVPSSSLGTQTYICNVNHKPSNTKVDKKVEPKSC", "heavy 2": "not shown", "notes": "human IgG1 Fc with L234A, L235A, P329G; also called RO7121932; BS-CD20"}},
  "key": {"human CD20 [1]": {"target": "T1, human CD20 (human, UniProt P11836 1-297)", "T1 sequence": "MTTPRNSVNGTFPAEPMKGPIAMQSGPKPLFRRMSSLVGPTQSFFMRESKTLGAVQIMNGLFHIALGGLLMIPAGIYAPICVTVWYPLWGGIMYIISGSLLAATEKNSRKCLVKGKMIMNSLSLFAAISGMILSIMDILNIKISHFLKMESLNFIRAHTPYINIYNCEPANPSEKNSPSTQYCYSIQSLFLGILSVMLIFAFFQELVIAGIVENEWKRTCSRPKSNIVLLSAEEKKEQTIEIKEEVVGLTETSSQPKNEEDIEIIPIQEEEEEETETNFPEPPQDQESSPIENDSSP", "assay": "cell-based or functional assay"}, "[2]": {"target": "human transferrin receptor 1 on MDCKII cells transfected with huTfR1 (human, UniProt P02786 1-760)", "sequence (P02786 whole entry)": "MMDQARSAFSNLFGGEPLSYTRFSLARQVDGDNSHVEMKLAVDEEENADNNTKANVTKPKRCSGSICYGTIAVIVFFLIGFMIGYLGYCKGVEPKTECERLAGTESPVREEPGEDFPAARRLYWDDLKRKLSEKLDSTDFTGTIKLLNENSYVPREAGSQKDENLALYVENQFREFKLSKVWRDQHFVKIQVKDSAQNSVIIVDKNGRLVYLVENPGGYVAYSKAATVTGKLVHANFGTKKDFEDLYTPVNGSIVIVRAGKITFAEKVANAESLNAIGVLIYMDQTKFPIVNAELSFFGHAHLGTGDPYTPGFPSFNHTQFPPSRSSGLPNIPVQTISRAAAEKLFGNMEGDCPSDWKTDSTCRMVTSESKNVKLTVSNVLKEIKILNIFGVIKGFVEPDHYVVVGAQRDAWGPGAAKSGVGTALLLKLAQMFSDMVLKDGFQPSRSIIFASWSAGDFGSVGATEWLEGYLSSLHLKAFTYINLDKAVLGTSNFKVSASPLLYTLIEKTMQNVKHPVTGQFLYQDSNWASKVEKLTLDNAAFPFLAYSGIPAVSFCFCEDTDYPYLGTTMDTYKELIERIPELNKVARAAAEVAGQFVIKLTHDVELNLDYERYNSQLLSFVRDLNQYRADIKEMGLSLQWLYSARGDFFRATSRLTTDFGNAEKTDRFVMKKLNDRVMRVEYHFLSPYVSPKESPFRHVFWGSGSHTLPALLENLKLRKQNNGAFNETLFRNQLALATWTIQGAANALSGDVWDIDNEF", "assay": "cell-based or functional assay"}, "[3]": {"target": "CD20 (species not stated, in-vitro-measured KD used in the cynomolgus monkey PK model)", "assay": "in vitro measurement, method not stated; value used in the PK model"}, "[4]": {"target": "T2, cynomolgus monkey transferrin receptor 1 (cynomolgus monkey, UniProt H9EXL1 89-760 (rhesus entry))", "T2 construct": "also called cyTfR1", "T2 sequence (chain, as listed by the source)": "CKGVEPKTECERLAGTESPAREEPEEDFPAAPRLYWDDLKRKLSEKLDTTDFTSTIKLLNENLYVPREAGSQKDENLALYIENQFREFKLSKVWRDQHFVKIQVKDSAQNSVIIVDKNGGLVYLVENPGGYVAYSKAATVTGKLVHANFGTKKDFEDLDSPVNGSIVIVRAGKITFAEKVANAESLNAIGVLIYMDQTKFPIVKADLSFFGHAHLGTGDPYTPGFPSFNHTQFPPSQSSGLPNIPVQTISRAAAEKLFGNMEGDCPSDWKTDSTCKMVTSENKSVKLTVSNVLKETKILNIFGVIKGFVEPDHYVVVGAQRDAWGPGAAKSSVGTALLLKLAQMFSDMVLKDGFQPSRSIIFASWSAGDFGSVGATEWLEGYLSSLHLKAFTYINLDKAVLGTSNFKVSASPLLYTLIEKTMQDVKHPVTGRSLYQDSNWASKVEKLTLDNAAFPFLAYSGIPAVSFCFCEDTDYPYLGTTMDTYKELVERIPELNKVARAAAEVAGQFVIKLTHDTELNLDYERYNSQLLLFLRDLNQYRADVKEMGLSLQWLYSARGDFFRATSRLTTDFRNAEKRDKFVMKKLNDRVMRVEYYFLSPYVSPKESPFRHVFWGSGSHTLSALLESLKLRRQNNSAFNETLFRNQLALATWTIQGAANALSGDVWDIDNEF", "assay": "surface plasmon resonance at 37° C.; cynomolgus TfR1; SPR at 37° C."}, "human CD20 [5]": {"target": "T1, human CD20", "assay": "flow cytometry on a human B-cell lymphoma cell line, 30 min at 4 C, detection with FITC-labeled F(ab)'2 goat anti-human Fc-gamma-specific antibody, median fluorescence intensity"}},
  "data": [
    {"binder": "B1", "values": [
      {"measurement": "EC50 of CD19+-B-cell depletion, ex vivo human tonsil-derived cells, average of three donors", "setting": "human CD20 [1]", "result": 0.4, "unit": "nM"},
      {"measurement": "EC50 of CD19+-B-cell depletion, ex vivo human tonsil-derived cells, donor T1", "setting": "human CD20 [1]", "result": 0.44, "unit": "nM"},
      {"measurement": "EC50 of CD19+-B-cell depletion, ex vivo human tonsil-derived cells, donor T2", "setting": "human CD20 [1]", "result": 0.2, "unit": "nM"},
      {"measurement": "EC50 of CD19+-B-cell depletion, ex vivo human tonsil-derived cells, donor T3", "setting": "human CD20 [1]", "result": 0.55, "unit": "nM"},
      {"measurement": "intracellular uptake in MDCKII-huTfR cells against non-transfected MDCKII-parental cells, 30-minute pulse, IgG ELISA", "setting": "[2]", "result": 30, "unit": "fold"},
      {"measurement": "Kd", "setting": "[3]", "result": 3.3, "unit": "nM"},
      {"measurement": "Kd", "setting": "[4]", "result": 694, "unit": "nM"},
      {"measurement": "EC50 (read off the curve)", "setting": "human CD20 [5]", "result": "~3", "unit": "nM"}
    ]}
  ]
}
